Earlier results in PMC4703387, “Identification of the Calmodulin-Binding Domains of Fas Death Receptor” (PLoS ONE, 2016).

Target: T1, Ca^2+/CaM (Homo sapiens, UniProt P0DP23)
T1 construct: made in house
Details: ref [32]
Text: We have also shown that both lobes of Ca^2+/CaM are important for FasDD binding. […] Our attempt to identify the interaction regions by ... || To identify the Ca^2+/CaM-binding regions in large proteins is not a simple task. To predict the Ca^2+/CaM-binding site, a web-based tool is often used to provide favorable scores based on multiple criteria including hydropathy, α-helical propensity, hydrophobic residue content, residue charge, residue weight, helical class and occurrence of particular residues.[39] However, this method can still provide biased results.

B1: FasDD: intracellular death domain of Fas (protein)
chain: SKYITTIAGVMTLSQVKGFVRKNGVNEAKIDEIKNDNVQDTAEQKVQLLRNWHQLHGKKEAYDTLIKDLKKANLCTLAEKIQTII
For B1, the “stoichiometry of Ca^2+/CaM–FasDD complex” value is given as “two Ca^2+/CaM molecules binding simultaneously to FasDD”.
